Test results as given in PMC5683418 (Molecular cell, 2017).

Target: T1, highly purified Flag-HA-tagged NRF2 (human, UniProt Q16236 1-605)
T1 sequence (looked up): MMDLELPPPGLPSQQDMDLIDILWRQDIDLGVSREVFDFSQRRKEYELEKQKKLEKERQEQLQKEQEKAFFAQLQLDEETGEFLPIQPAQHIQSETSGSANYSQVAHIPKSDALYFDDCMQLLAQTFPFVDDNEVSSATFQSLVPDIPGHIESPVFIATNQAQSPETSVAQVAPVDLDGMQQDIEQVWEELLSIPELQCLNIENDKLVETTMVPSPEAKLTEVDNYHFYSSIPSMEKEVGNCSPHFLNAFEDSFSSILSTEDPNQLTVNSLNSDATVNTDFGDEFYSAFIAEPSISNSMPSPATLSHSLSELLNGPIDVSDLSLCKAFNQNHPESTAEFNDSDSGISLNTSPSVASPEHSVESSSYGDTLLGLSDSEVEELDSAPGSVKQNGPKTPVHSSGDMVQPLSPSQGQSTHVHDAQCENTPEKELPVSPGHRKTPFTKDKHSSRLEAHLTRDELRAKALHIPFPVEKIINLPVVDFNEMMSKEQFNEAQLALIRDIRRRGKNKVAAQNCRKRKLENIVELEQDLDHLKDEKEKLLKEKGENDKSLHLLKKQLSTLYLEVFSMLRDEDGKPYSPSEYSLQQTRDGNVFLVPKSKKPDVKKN
Experiment: pull-down

- binding result: binds
B1: GST-ARF (1–64) (domain or fragment, UniProt Q8N726 1-64, looked up)
chain: MVRRFLVTLRIRRACGPPRVRVFVVHIPRLTGEWAAPGAPAAVALVLMLLRSQRLGQQPLPRRP
